Laboratory results reported in the DeepSol protein solubility set.

Test: soluble on expression in E. coli; label from the status in PepcDB or PDB records

Sequence | soluble on expression in E. coli
MGSDKIHHHHHHMKSYVLTVSCKSTRGIVAAITGYLAEKGCYISDSSQFDDFQTGLFFMRLTFISQDGAKLEELREGFEPVIKRFEMMMEIRDSEERMKVLLMVSRFGHCLNDLLYRWKIGALPIDIVGVVSNHFDYQKVVVNHDIPFHHIKVTKENKPKAEAQLMDVVEQTGAELIVLARYMQVLSDALCKKMSGKIINIHHSFLPSFKGANPYKQAYERGVKLIGATAHYVTADLDEGPIIEQDIARITHAQSAEDYVSIGRDVESQVLARAVHAHIHHRCFINGNRVVVFPPSPGSYASERMG | not soluble
MGSDKIHHHHHHMPVNIKQLAQEFDKKEIGITQGHRLCPGCGAPITVKFVMMIARHLGYEPVVGLATGCLEVSTSIYPYTAWSVPYIHNAFENVAATMSGVETAYKALKNKGKIPEDKKYAFIAFGGDGGTYDIGLQSLSGMLERGHKVLYVLYDNEGYMNTGNQRSGSTPPGSDTTTAPVGKKLPGKVQLKKNIVEIVAAHENVYAATASLSEPMDFFAKVEKALNFDGPSFLAVFSPCVRFWRVNDDKTVEISKLAVETKYWPLYEVERGVYRVTRKPRQFKPVEEFLKAQGRFRKLLSRPDAKEIVDELQEYVDRRWERLLTLEEVTKDKPIR | not soluble
MGSSHHHHHHGGTGENLYFQGGSGAFRGSSARLAATPGVGIAPETTPVKYVPEMLNIQNAKWWNGRGKPVYRSTYNEKSWLEKARWGAFTKGSRPVMRQRYSAAALKEALEMVPEGFETCDVPRPPQRIRAQSEGVVGRWYTNYWTLHSVRYQCQLAGVEWQFGERQRPRTNYDEPHMYTDFEETKAIRDYRSRWINVNRSLVGMSRRMKESEEEARYLHFKKVQDTFWSNRKVLVNRIKSMHNQGTLQSAKDLPIKTINIKAFLAE | not soluble
GLDALFERAVESVAAGLNTEYSKVLEYRPADNKFLLRAGVGWQSGLVGEAAVGAGEESQAGYTLQTEEPVVVEDLRTESRFSGPSLLLDHGVVSGISVIIGTTTEPWGVLGAHTSERRPFTKDDITFVRGVANTLTNAIEREQLEGTLRQAEQRYKTLLENFP | not soluble
MGSDKIHHHHHHMRTIWTPTLENFSGSKYEQLANAIGDAITRGELAPGSKLPPQRRLADALGVTLGTVTRAYTKAIYRGWVEARVGDGTYVRMAEPKSTGPLDLATCQQAVTDQAAFLGEVMSRMGRDPVRLAGLLDYHTANLEAQQETVLTFLARSGVDDFGGKLVFTHGAQQGLFAALAAICEPGDWVLHEAWCYPGLNRAAEALSLNLCGVSLLDDGLNLDELAACIDKHKPKAIYLTPNSQNPGCIGYSGAQRQRILALARAHDIIIIEDDVNYCTSQEWSAPIWQLAADAQSVVYLSSLSKRFAGGIRFGFMLLPARLQPRVNRIIHAHCWMVSPLLIEIGCELIRSGGIHQHRDAWIASLQQRFLTMAESLDLEAKSRGLNGRLTLPEGFRASNVIAALAAKGILARSLADFGGPANGIRFSLGRIPRGEEDEVFDRIQSTLTDVLNQGIAVV | not soluble
MATGKGEYHMGNTMTKAIYDKFKVATPYGNKVATGAIPAEAVNIAVKVGGFKVGDQNYPINPKITFTNNTGIDIPGGTEFQFDIPVSAPDNAKDQSGGGLKVIASGHTRANNIGGLDGTMHRVAFSLPAWKSLPAGATYELDMVYYLPISGPANYTVKINNVEYAFSFEQPDLPVADLTALEHHHHHH | soluble
MGSSHHHHHHGKTIFVIVPTNEEQVAFLEALAKQDELNFDWQNPPTEPGQPVVILIPSDMVEWFLEMLKAKGIPFTVYVEEGGSENLYFQGGGGGGRSSRHLCGLPTVRTVAATGWRYHRHGAPEKVLQYERYRVPFDRTSGQVVVKMLAAPVHRHDKNLIEGHGGPIAVPKACLPHVAGVEGVGVVEEVGSNAKLALKEGDMVWINNPSVGSWATHIVTDAENLDVVPCRADVDIEYLASLSLFHTAYHLTHDFVNIQPNDVVLQTGASSSIAQICQGYLRAKGAKLFQTMQLGRTEHAHLLAFFKLRGAFAVVPYNYARTNYMRRLLSDVPPPKLLLNHTCGGYASNLVNLLGDNGVCVTYGNTSHQPMQISNMDAIARGVQFKGFFLPSWIRRHTREARMRVHQNVVESMTITQGHGIFRAQRFKMDGDSAFAFSNAWDAPLASRKAVLRIVGEYGEWRRPRSDQAGWNIGRAVWEDMLQQMWESAGTTENPQSMKYYTPFDDIHSSFYDAKQSKELGHRDVFFRRPNAPRHNAAEQQQ | not soluble
MRYFKRRVGSGRVYMVMDNYSPHKTKGTLEVCCRKGIHPVFTPPYSPELNMAEAVFKSLKNYMSNKIFYTIEDVKNCIKQFFEENKYRFNLNAITYLGLDKIEV | soluble
MTLDLPELPFPLRPYGPDGRWSYADGVLTGVAGSRQDRFVPPTGESLESVSDAPRLLGAPDGDFQLIARVSVGFRGAFDAGVLYVHVGERAWAKLCLEYSPDVPTVCTVVTRGHSDDCNSFTVEGDSVWFRVSRTGRAFAFHASLDGERWTFVRLFTLGDEEETGSALVGFLAQAPTGEGCTVTYDHLEFRPAWPADLRDGSLEHHHHHH | not soluble
MGSDKIHHHHHHMPTIAEKLKSRESDLTRAERQLSAAILDNYPIPGLGSITELAELAEVSTPTVARMVQKLGFSGYPEFQHALREELREIISNPVEKRAEQAPELPEGHMLNRYAVAVYDNIRATLENVNLEEFDTLCALLADTNSRVHIAGGRLSGTLAQNFYLHLQMIRRDVFMIPPRASWTHSVLDLLPGDTLILFDIRRYENATLLLAEMAHERGVKVVLFTDQWRSPIQKEATFTFAARIAVPSAWDSGVALLLLIESMIAKIQEDHWDTVKARNDELEAAFDRTRLFRKFT | not soluble
MSNYSVSLVGPAPWGFRLQGGKDFNMPLTISSLKDGGKAAQANVRIGDVVLSIDGINAQGMTHLEAQNKIKGCTGSLNMTLQRASAAPKPEPVPVQKGEPKEVVKPVPITSPAVSKVTSTNNMAYNKAPRPFGSVSSPKVTSIPSPSSAFTPAHATTSSHASPSPVAAVTPPLFAASGLHANANLSADQSPSALSAGKTAVNVPRQPTVTSVCSETSQELAEGQRRGSQGDSKQQNGPPRKHIVERYTEFYHVPTHSDASKKRLIEDTEDWRPRTGTTQSRSFRILAQITGTEHLKESEADNTKKANNSQEPSPQLASSVASTRSMPESLDSPTSGRPGVTSLTTAAAFKPVGSTGVIKSPSWQRPNQGVPSTGRISNSAAYSGSVAPANSALGQTQPSDQDTLVQRAEHIPAGKRTPMCAHCNQVIRGPFLVALGKSWHPEEFNCAHCKNTMAYIGFVEEKGALYCELCYEKFFAPECGRCQRKILGEVINALKQTWHVSCFVCVACGKPIRNNVFHLEDGEPYCETDYYALFGTICHGCEFPIEAGDMFLEALGYTWHDTCFVCSVCCESLEGQTFFSKKDKPLCKKHAHSVNF | soluble
MGSDKIHHHHHHMKIGVIQASTRTDLNQLLFEAVKQAAGNQHEIVNFGVFPQETENYSYVEVAIMISLLIETGAIDFMVSGCSSGQGMMMACNSLPGLQAGFIQTPQDAFLFGRINNGNVASLSLGLNFGWAGELNLQYALNELFHGEFGIGYPPEVAERKREEAQLLLTLNDITKKSFLEIIDQLDKALLFKILKRKDLTAYLFDYGSNSLLLERLQFFRN | not soluble
ATDVAARGLDISGVTHVYNYDIPQDPESYVHRIGRTGRAGKEGMAITFVQPREMGYLRIVEETTKKRMQPLQAPTWDEAFAGQLRVATEKIQEAITEENLADYKTFANELLEKYDATDIAAAMLKMLAKEPDKTPVHITEERPLPSRGGGGYKGK | not soluble
MSNAREIRSKVQSVKNTQKITGAMELVAASKMRGAIVKMNNVRPYVESANTIIKNVTAASIDYPNPYLFDRDVKRVGYIVISTDRGLCGGLNINLFKHVLKEIKNNIEDRVGVDVCVIGSKAENFFAKLKDVNIVATAHYNDKDKEGSIRAIGGAVKVMLDKFTAGEIDRLYMSSNQFVSTIKQRPRLQTLLPIQDIFSAEEIKANKEKATKGHWDYIYERDIEEVLNALFIRYIEAQVRGAILENAACEQAARMMAMKNATDNASDIIDQLKLDYNKVRQAMITQELAEICSGAAAV | not soluble
MQAKEEKEFTLQERRCLIVWVYTLKPLKQLRRYGLIHYVSRKMKYVVIYMNEENIESNMEKINQLHFVRSVDKSYRPDVEMNFAEKIGTKAAYQEQEDDGYVVEELSTEIRLAENV | not soluble
MGSDKIHHHHHHMDDQLNALRDLAIPFPITASFRQQARAYASQYFTQDTHERVYLNTLAVLVANAYFRLLNFQTNLTKAERWNAACRVWSEANEIELVGLGNLECRVITAGQQTIILPPETWADRIGYLFVEITSSEKVATLIGFLPAFDAETSGEEVAISTTGYAYADLKSMDEAMDYLTQQEASARSKTGEIDNLTRDFAAKKITYLRNWLNNVYDSDWEPAMRELSAATCKKKIQLVGQVFEMQLSVSQSNGAITVTVIVRLESGFLPIGIQVSVPDESEIYTETVSTPADLIRIPLEFSPGEEFWVELRWGETFTREYFIA | not soluble
MRIFVYGSLRQKQGNSHWMTNAQLLGDYRIDNYQLYSLGHYPGAVPGNGAVYGEVYRIDNATLAELDALRTRGGEYARQLIQTPYGSAWMYVYQRPVDGLTLIESGDWLDRNQP | not soluble
GAMGSEEKLREVSSQDPVTGLYNRSHFLDLMDAAVQQAVTARKPSTLAYIHLNGYPSLQADHGLSGIDLLLGQLAGLMREQFGEEADLARFGDSIFAALFKGKTPEQAQAALQRLLKKVENHLFELNGRSAQATLSIGVAGLDEKTAKAQDVMNRAHRCADDAARKGGSQIKQYNPAEELAAAAQRGDVIAILQQALETNSFRLLFQPVISLRGDSHENYEVLLRLLNPQGQEVPPAEFLHAAKEAGLAEKIDRWVILNSIKLLAEHRAKGHQTKLFVHLSSASLQDPGLLPWLGVALKAARLPPESLVFQISEADATSYLKQAKQLTQGLATLHCQAAISQFGCSLNPFNALKHLTVQFIKIDGSFVQDLNQVENQEILKGLIAELHEQQKLSIVPFVESASVLATLWQAGATYIQGYYLQGPSQAMDYDFSSGDE | soluble
AEPVKVGSKIDTEGALLGNMIQQVLESHGVKTINKIQLGTTPVVRGAIVAGELDIYPEYTGNGAFFFKDENDPAWKNAQQGYEKVKRLDQEKHQLVWLTPAPANNTWTIAVRQDLAEKNKLTSLADLSRYLKQGGEFKLAASAEFIERPDALPAFEKAYGFNLNQNQLLSLAGGDTAVTIKAAAQQTSGVNAAMAYGTDGPVAALGLQTLSDPQGVQPIYAPTPVVREAVLKAYPQIADWLQPVFASLDEKTLQQLNARIAVEGQDAKRVAADYLQQKGLLK | not soluble
MGDNQVTGGDIHKLWMTAHMDISAVEDAYIKLTEQLDGDVAEGDEGKYGKAFDSWNIYREIVQLALFRTAVSARATRLALDLAVSEFTFVDGDAANGITDAGKEFLEAVGDENQTPPEYVVEPEGDPVAPLGNDE | not soluble
MINIYYNVEPLRSNEEITDFVNKARNGTHGERNALLILIGLNTGLRMSDILNLKVGQIRYHDIVHITEKKTKKRRVILLTRLRPQINHYIKDLPDNEYLFTNRQHQPLSVNAVYKLFQTIARKMHRTDIGTHTLRKTFGYHYYQQTHDIGTLMMIFNHSNEAITKRYIGLNQDVILKQMAGFQLGLEYEKATNMR | not soluble
